Data on two molecules can be found in US12679878B2, “CRF2 receptor agonists and their use in therapy” (SANOFI, priority 2020, dated 2026).

Starred links: 1 amine or outer side, 2 acyl side, 3 side chain; linkers in the order of their positions; H or OH if unused. Non-standard residues stand in square brackets, D forms with d. Groups on a side chain read outwards from the residue. No end group written: not given here. *: point of attachment. C16 diacid = O=C(O)CCCCCCCCCCCCCCC(=O)*; γGlu = O=C(O)[C@H](CCC(=O)[*:2])N[*:1]; Aib = CC(C)(N)C(=O)O

This assay has as its target T1, CRF1R receptor (anti-target) (UniProt P34998 24-415, limits assumed).
T1 sequence (looked up): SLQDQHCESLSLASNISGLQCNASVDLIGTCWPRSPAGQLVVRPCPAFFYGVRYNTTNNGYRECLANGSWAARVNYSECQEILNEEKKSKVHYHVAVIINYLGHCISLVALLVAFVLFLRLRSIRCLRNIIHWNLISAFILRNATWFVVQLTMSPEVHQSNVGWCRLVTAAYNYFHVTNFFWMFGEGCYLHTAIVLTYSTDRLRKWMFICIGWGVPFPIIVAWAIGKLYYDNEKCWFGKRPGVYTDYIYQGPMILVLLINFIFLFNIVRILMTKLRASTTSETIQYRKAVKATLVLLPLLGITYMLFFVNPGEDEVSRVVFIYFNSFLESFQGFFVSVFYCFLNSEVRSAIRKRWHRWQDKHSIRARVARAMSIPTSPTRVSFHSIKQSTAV
The experiment in a line: cell-based or functional assay.

B1: peptide of SEQ ID NO: 193 (peptide)
peptide: IVLSLD[dV]PIGLK([γGlu-C16 diacid])QILLKQERQKK[Aib]REQAETNKRILERV-NH2
modifications: N-terminus assumed
SMILES: CC[C@H](C)[C@H](N)C(=O)N[C@H](C(=O)N[C@@H](CC(C)C)C(=O)N[C@@H](CO)C(=O)N[C@@H](CC(C)C)C(=O)N[C@@H](CC(=O)O)C(=O)N[C@@H](C(=O)N1CCC[C@H]1C(=O)N[C@H](C(=O)NCC(=O)N[C@@H](CC(C)C)C(=O)N[C@@H](CCCCNC(=O)CC[C@H](NC(=O)CCCCCCCCCCCCCCC(=O)O)C(=O)O)C(=O)N[C@@H](CCC(N)=O)C(=O)N[C@H](C(=O)N[C@@H](CC(C)C)C(=O)N[C@@H](CC(C)C)C(=O)N[C@@H](CCCCN)C(=O)N[C@@H](CCC(N)=O)C(=O)N[C@@H](CCC(=O)O)C(=O)N[C@@H](CCCNC(=N)N)C(=O)N[C@@H](CCC(N)=O)C(=O)N[C@@H](CCCCN)C(=O)N[C@@H](CCCCN)C(=O)NC(C)(C)C(=O)N[C@@H](CCCNC(=N)N)C(=O)N[C@@H](CCC(=O)O)C(=O)N[C@@H](CCC(N)=O)C(=O)N[C@@H](C)C(=O)N[C@@H](CCC(=O)O)C(=O)N[C@H](C(=O)N[C@@H](CC(N)=O)C(=O)N[C@@H](CCCCN)C(=O)N[C@@H](CCCNC(=N)N)C(=O)N[C@H](C(=O)N[C@@H](CC(C)C)C(=O)N[C@@H](CCC(=O)O)C(=O)N[C@@H](CCCNC(=N)N)C(=O)N[C@H](C(N)=O)C(C)C)[C@@H](C)CC)[C@@H](C)O)[C@@H](C)CC)[C@@H](C)CC)C(C)C)C(C)C
Regarding B1, the “CRF1/CRF2 ratio (of EC50)” value is over 500 and the “CRF1 EC50 (cAMP, HTRF)” value was over 100 nM.

B2: peptide of SEQ ID NO: 196 (peptide)
peptide: IVLSLD[dV]PIGLK([γGlu-C16 diacid])QILLKQERQKK[Aib]REQAEKNKRILERV-NH2
modifications: N-terminus assumed
SMILES: CC[C@H](C)[C@H](N)C(=O)N[C@H](C(=O)N[C@@H](CC(C)C)C(=O)N[C@@H](CO)C(=O)N[C@@H](CC(C)C)C(=O)N[C@@H](CC(=O)O)C(=O)N[C@@H](C(=O)N1CCC[C@H]1C(=O)N[C@H](C(=O)NCC(=O)N[C@@H](CC(C)C)C(=O)N[C@@H](CCCCNC(=O)CC[C@H](NC(=O)CCCCCCCCCCCCCCC(=O)O)C(=O)O)C(=O)N[C@@H](CCC(N)=O)C(=O)N[C@H](C(=O)N[C@@H](CC(C)C)C(=O)N[C@@H](CC(C)C)C(=O)N[C@@H](CCCCN)C(=O)N[C@@H](CCC(N)=O)C(=O)N[C@@H](CCC(=O)O)C(=O)N[C@@H](CCCNC(=N)N)C(=O)N[C@@H](CCC(N)=O)C(=O)N[C@@H](CCCCN)C(=O)N[C@@H](CCCCN)C(=O)NC(C)(C)C(=O)N[C@@H](CCCNC(=N)N)C(=O)N[C@@H](CCC(=O)O)C(=O)N[C@@H](CCC(N)=O)C(=O)N[C@@H](C)C(=O)N[C@@H](CCC(=O)O)C(=O)N[C@@H](CCCCN)C(=O)N[C@@H](CC(N)=O)C(=O)N[C@@H](CCCCN)C(=O)N[C@@H](CCCNC(=N)N)C(=O)N[C@H](C(=O)N[C@@H](CC(C)C)C(=O)N[C@@H](CCC(=O)O)C(=O)N[C@@H](CCCNC(=N)N)C(=O)N[C@H](C(N)=O)C(C)C)[C@@H](C)CC)[C@@H](C)CC)[C@@H](C)CC)C(C)C)C(C)C
In the case of B2, the “CRF1/CRF2 ratio (of EC50)” value was over 500 and the “CRF1 EC50 (cAMP, HTRF)” value is over 100 nM.
